Our source for the activity (fold vs WT FokI) and activity values is patent US20230416709.

Test in all cases: cell_activity
For data set [1], the system named is GFP_TALEN(R)-FokI M50 (Flavobacterium okeanokoites (FokI domain)). The settings on record: SSA reporter HEK293T, pair; value in figure only.
Data set [2] concerns GFP_TALEN(R)-FokI M49 (Flavobacterium okeanokoites (FokI domain)). The settings on record: SSA reporter HEK293T, pair; value in figure only.
The test system of data set [3] is GFP_TALEN(R)-FokI M48 (Flavobacterium okeanokoites (FokI domain)). The settings on record: SSA reporter HEK293T, pair; value in figure only.
For data set [4], the system named is GFP_TALEN(R)-FokI M47 (Flavobacterium okeanokoites (FokI domain)). The settings on record: SSA reporter HEK293T, pair; value in figure only.
Data set [5] relates to GFP_PPR(L)-FokI M50 (Flavobacterium okeanokoites (FokI domain)). The settings on record: Fn reporter HEK293T, paired with GFP_PPR(R).
Data set [6] has as its system B2M_TALEN(L)-FokI M50 (Flavobacterium okeanokoites (FokI domain)). The settings on record: SSA reporter HEK293T, pair; value in figure only.
Data set [7] has as its system B2M_TALEN(L)-FokI M48 (Flavobacterium okeanokoites (FokI domain)). The settings on record: SSA reporter HEK293T, pair; value in figure only.
For data set [8], the system named is B2M_TALEN(L)-FokI M47 (Flavobacterium okeanokoites (FokI domain)). The settings on record: SSA reporter HEK293T, pair; value in figure only.
The test system of data set [9] is B2M_TALEN(L)-FokI M49 (Flavobacterium okeanokoites (FokI domain)). The settings on record: SSA reporter HEK293T, pair; value in figure only.
Data set [10] concerns B2M_TALEN(R)-FokI M47 (Flavobacterium okeanokoites (FokI domain)). The settings on record: SSA reporter HEK293T, pair; value in figure only.
Data set [11] relates to B2M_TALEN(R)-FokI M49 (Flavobacterium okeanokoites (FokI domain)). The settings on record: SSA reporter HEK293T, pair; value in figure only.
The test system of data set [12] is B2M_TALEN(R)-FokI M48 (Flavobacterium okeanokoites (FokI domain)). The settings on record: SSA reporter HEK293T, pair; value in figure only.
For data set [13], the system named is B2M_TALEN(R)-FokI M50 (Flavobacterium okeanokoites (FokI domain)). The settings on record: SSA reporter HEK293T, pair; value in figure only.
For data set [14], the system named is GFP_PPR(R)-FokI M50 (Flavobacterium okeanokoites (FokI domain)). The settings on record: Fn reporter HEK293T, paired with GFP_PPR(L).
Data set [15] relates to B2M_PPR(L)-FokI M50 (Flavobacterium okeanokoites (FokI domain)). The settings on record: Fn reporter HEK293T, paired with B2M_PPR(R).
Data set [16] deals with B2M_PPR(R)-FokI M50 (Flavobacterium okeanokoites (FokI domain)). The settings on record: Fn reporter HEK293T, paired with B2M_PPR(L).
The subject of data set [17] is TALEN-A-FokI wild-type (MBP fusion) (Flavobacterium okeanokoites (FokI domain)). The settings on record: E. coli B2P, 0.1 mM IPTG 15 min 37 C.
In data set [18] the test system is TALEN-A-FokI M50(G473) (MBP fusion) R473G (Flavobacterium okeanokoites (FokI domain)). The settings on record: E. coli B2P; M50 24% in same experiment.
Data set [19] relates to TALEN-A-FokI M48 (MBP fusion) (Flavobacterium okeanokoites (FokI domain)). The settings on record: E. coli B2P, 0.1 mM IPTG 15 min 37 C.
Data set [20] has as its system TALEN-A-FokI M49 (MBP fusion) (Flavobacterium okeanokoites (FokI domain)). The settings on record: E. coli B2P, 0.1 mM IPTG 15 min 37 C.
For data set [21], the system named is TALEN-A-FokI M47 (MBP fusion) (Flavobacterium okeanokoites (FokI domain)). The settings on record: E. coli B2P, 0.1 mM IPTG 15 min 37 C.
The test system of data set [22] is TALEN-A-FokI M50 (MBP fusion) (Flavobacterium okeanokoites (FokI domain)). The settings on record: E. coli B2P, 0.1 mM IPTG 15 min 37 C; 24% in second experiment (p75).
The subject of data set [23] is GFP_TALEN(L)-FokI M50 (Flavobacterium okeanokoites (FokI domain)). The settings on record: SSA reporter HEK293T, pair; value in figure only.
In data set [24] the test system is GFP_TALEN(L)-FokI M49 (Flavobacterium okeanokoites (FokI domain)). The settings on record: SSA reporter HEK293T, pair; value in figure only.
The subject of data set [25] is GFP_TALEN(L)-FokI M48 (Flavobacterium okeanokoites (FokI domain)). The settings on record: SSA reporter HEK293T, pair; value in figure only.
Data set [26] deals with GFP_TALEN(L)-FokI M47 (Flavobacterium okeanokoites (FokI domain)). The settings on record: SSA reporter HEK293T, pair; value in figure only.

As for “TTGCCGTAGGTGGCA (double strand) [GFP_TALEN(R) half-site]”, the activity (fold vs WT FokI) in data set [1], in data set [2], in data set [3] and in data set [4] was over 1 in each case.
“ACGACTTCTTCAAGT (double strand) [GFP_PPR(L) half-site]” yielded an activity (fold vs WT FokI) in data set [5] of 1.5.
“CCAAAGATTCAGGT (double strand) [B2M_TALEN(L) half-site]”: the activity (fold vs WT FokI) in [6], in [7], in data set [8] and in data set [9] was over 1 throughout.
Turning to “GACTTTCCATTCTC (double strand) [B2M_TALEN(R) half-site]”, the activity (fold vs WT FokI) in data set [10], in [11], in data set [12] and in data set [13] was over 1 each time.
As to “CCTGGACGTAGCCTT (double strand) [GFP_PPR(R) half-site]”, the activity (fold vs WT FokI) in data set [14] came to 1.5.
Take “AATGGAAAGTCAAA (double strand) [B2M_PPR(L) half-site]”: the activity (fold vs WT FokI) in [15] is 2.2.
In turn, “AGCAATTCAGGAAA (double strand) [B2M_PPR(R) half-site]” registered an activity (fold vs WT FokI) in [16] of 2.2.
With “AGCCGAAATCATCGCAGCCGCTGCCGCGAGCTCCTGCGATGATTTCGGCT (double strand) [TALEN-A target site (inverted repeat)]”, the activity in data set [17] was 0.0001 % survival; in [18] it was under 0.05 % survival; in data set [19], 37 % survival; in data set [20] it was 45 % survival; in data set [21], 29 % survival; in data set [22] it was 28 % survival.
Regarding “CAGCGTGTCCGGCGA (double strand) [GFP_TALEN(L) half-site]”, the activity (fold vs WT FokI) in [23], in data set [24], in [25] and in [26] was over 1 throughout.
